Results as given in the supplement of paper PMC9732359.
± gives the uncertainty stated by the source.

Test: protein stability index of a GFP-peptide fusion (yeast GPS) (PSI 1-4); higher = more stable; sorted into four equal gates, so the index is relative within each strain
How it was run: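 Sequencing reads from sorted gates were used to score each peptide. The library consisted of tiled 17-residue yeast protein peptides fused downstream of GFP on a Cherry-expressing plasmid, pooled and carried in yeast. Mid-log cultures in leucine-free medium were split into four equal gates by GFP/Cherry ratio, and each gate's plasmids were PCR-amplified and Illumina-sequenced. The protein stability index adds up, over all gates, the read frequency multiplied by the gate number.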

Sequence | protein stability index (doa10∆) | protein stability index (pdr5∆) | protein stability index (san1∆) | protein stability index (ubr1∆)
ERFQVMVLRKQKRYTVK [RPL14A] | 2.37 ± 0.12 | 2.19 ± 0.1 | 2.21 ± 0.24 | 2.71 ± 0.11
LSKINAIQLDYSTANEY [RPN3] | 3.13 ± 0.084 | 2.15 ± 0.066 | 3.17 ± 0.085 | 3.06 ± 0.062
YVNVAISIYNMLPPKSV [SSN2] | 1.71 ± 0.049 | 1.82 ± 0.043 | 2.01 ± 0.062 | 2.12 ± 0.029
GINKKKLLAISKFNNAD [RPC31] | – | 1.93 ± 0.18 | 2.97 ± 0.23 | –
VQMDKIRKIVRKDENQF [AAR2] | 3.25 ± 0.17 | 2.81 ± 0.18 | – | –
DLSYIEFLFESLKNDLP [ECM29] | 2.84 ± 0.13 | 2.65 ± 0.14 | 2.78 ± 0.083 | 3.13 ± 0.12
TIDEQSQISPEKQTPNK [RPN1] | 3.24 ± 0.17 | 3.57 ± 0.15 | 3.28 ± 0.12 | 3.22 ± 0.056
KETVEIGIVDYEAGASH [FAS1] | – | 2.92 ± 0.19 | – | 3.06 ± 0.14
KNEETPQNEKPPAYALL [RPC25] | 2.27 ± 0.23 | – | 2.05 ± 0.14 | 2.74 ± 0.24
IGAAELNENARELEQIK [SNF12] | 3.18 ± 0.081 | 3.18 ± 0.067 | 2.84 ± 0.12 | 3.33 ± 0.05
ERTKQRTAKAYLKVSEE [PRP8] | 3.08 ± 0.093 | 3.12 ± 0.11 | 3.27 ± 0.056 | 3.34 ± 0.057
SPFFVLDEVDAALDITN [SMC1] | 2.39 ± 0.093 | 2.78 ± 0.071 | 2.63 ± 0.066 | 2.69 ± 0.057
QKSVSLLSSESNIPTLI [YDL116W/NUP84] | 2.73 ± 0.056 | 2.69 ± 0.065 | 2.8 ± 0.039 | 2.67 ± 0.05
VDRSKYNIELPLPPRID [RPT1] | 3.33 ± 0.2 | 3.58 ± 0.26 | 3.15 ± 0.094 | 3.14 ± 0.17
NKLRQQAIAKNNPQVVN [SNF5] | 1.54 ± 0.035 | 1.94 ± 0.042 | 1.81 ± 0.049 | 1.65 ± 0.03
ANPAGASQPEPTTNEPA [YJL041W/NSP1] | 2.82 ± 0.12 | 3 ± 0.11 | 2.92 ± 0.1 | 3.16 ± 0.095
IRENKVTYSRVSKKVDV [BRN1] | 2.76 ± 0.1 | 2.93 ± 0.11 | 2.94 ± 0.081 | 3.04 ± 0.087
AKKLSSFDFGNENEDED [ARP9] | 3.24 ± 0.11 | 3.13 ± 0.12 | – | 3.15 ± 0.087
NKTVNEAAKPSLSFGSG [YJL041W/NSP1] | 3.5 ± 0.13 | 3.01 ± 0.083 | 2.08 ± 0.21 | 3.21 ± 0.078
SGTKSEVLTYVNYLISN [YJL039C/NUP192] | 2.52 ± 0.053 | 2.5 ± 0.056 | 2.54 ± 0.041 | 2.58 ± 0.044
LWALLNFLLPDIFGDSE [ISW2] | 2.15 ± 0.05 | 1.98 ± 0.05 | 2.52 ± 0.07 | 2.64 ± 0.043
LLVGLIKTFYWLEQFLS [NUT1] | 2.24 ± 0.12 | 1.11 ± 0.076 | 1.34 ± 0.14 | 1.24 ± 0.074
PLPTPFKVDDNVDFPSA [RPN2] | 2.94 ± 0.054 | 2.75 ± 0.043 | 2.6 ± 0.074 | 2.63 ± 0.052
FADKKRDCIDISIFSTP [PRP8] | 3.2 ± 0.076 | 2.99 ± 0.072 | 2.87 ± 0.055 | 3.24 ± 0.068
LIPEDKRDQYLKSASKE [RPL28] | – | 3.1 ± 0.19 | 1.95 ± 0.18 | 3.36 ± 0.098
SGLPTCDYYNTFLLNNK [RPN2] | 2.94 ± 0.069 | 2.96 ± 0.071 | 2.68 ± 0.062 | 2.51 ± 0.069
NETIIDNFSPHQNVIIG [SMC3] | – | 2.56 ± 0.17 | 2.29 ± 0.13 | –

Sequence | protein stability index (doa10∆) | protein stability index (pdr5∆) | protein stability index (san1∆) | protein stability index (ubr1∆)
AKLLQENDTTLVKTKEL [FAS1] | 2.66 ± 0.14 | 2.08 ± 0.27 | – | –
DQSISKLQSWDKVSSCF [NNF1] | 1.51 ± 0.072 | 1.59 ± 0.069 | 1.42 ± 0.1 | 1.82 ± 0.053
MGRMHSAGKGISSSAIP [RPS13] | 2.74 ± 0.043 | 2.61 ± 0.068 | 3.11 ± 0.048 | 2.88 ± 0.041
NAASGSNSNVTNPSSIF [YOR098C/NUP1] | 2.83 ± 0.049 | 2.74 ± 0.047 | 2.3 ± 0.049 | 2.73 ± 0.049
TKLIGVLILLHAERDLA [SRP68] | 1.28 ± 0.078 | 2.26 ± 0.17 | 2.48 ± 0.088 | 2.78 ± 0.098
VLIKMVKMLRDNPGYKA [SIR3] | 3.34 ± 0.077 | 3.47 ± 0.068 | 3.47 ± 0.039 | 3.33 ± 0.036
ENPAFLPGTNNNSNSNN [SEC65] | 3.12 ± 0.17 | 3.13 ± 0.24 | 2.69 ± 0.15 | 2.86 ± 0.067
FVRGDSKIFRFQNSKSA [RPL24A] | 2.31 ± 0.053 | 2.63 ± 0.057 | 2.31 ± 0.059 | 2.43 ± 0.051
YHTNPGHSQFTSHYQNY [RPN4] | 2.82 ± 0.067 | 2.9 ± 0.089 | 3.02 ± 0.079 | 3.04 ± 0.054
EKTINDLQRTQTLSEKE [YIL149C/MLP2] | 2.97 ± 0.071 | 3.03 ± 0.06 | 2.94 ± 0.044 | 2.94 ± 0.042
FVAATTNAGYTIELAGG [FAS1] | 2.82 ± 0.063 | 2.97 ± 0.059 | 2.9 ± 0.11 | 2.68 ± 0.062
GDTIELAIIGDENPDLL [PRE8] | 3.56 ± 0.22 | 3.11 ± 0.17 | – | –
KLSESLDTRKELWRKEQ [SMC3] | 1.29 ± 0.077 | 1.75 ± 0.1 | 3.19 ± 0.19 | 1.82 ± 0.12
FLPRKRAASIRARVKAF [RPL3] | 1.16 ± 0.045 | 1.18 ± 0.064 | 1.15 ± 0.11 | 1.17 ± 0.051
QHQRIVAFVCSPISDSR [RPN10] | 1.92 ± 0.097 | 3.12 ± 0.11 | 1.48 ± 0.15 | 2.3 ± 0.16
TEKEEAVAKAAEKKVVR [RPL17A] | 3.44 ± 0.087 | 3.35 ± 0.082 | 3.24 ± 0.053 | 3.24 ± 0.062
RYFFYLSKINAIQLDYS [RPN3] | 1.31 ± 0.057 | 1.23 ± 0.058 | 1.34 ± 0.15 | 1.33 ± 0.044
SVLISIPLDNYDDFIYL [PCI8] | 1.25 ± 0.048 | 1.75 ± 0.055 | 1.28 ± 0.11 | 1.52 ± 0.042
RKILKKTFKNPKYESLK [RPN5] | 2.87 ± 0.094 | 2.96 ± 0.07 | 3.18 ± 0.094 | 3.19 ± 0.062
DFISPELIIDKVTCSSN [MED1] | 1.69 ± 0.1 | 1.75 ± 0.099 | 1.82 ± 0.22 | 1.37 ± 0.09
DQDRGAARHKQHEQGTF [RRI2] | 3.21 ± 0.1 | 2.99 ± 0.23 | – | –
IRFRIEREVFVDVKPKS [RPC25] | 2.13 ± 0.12 | 2.66 ± 0.16 | 2.16 ± 0.13 | 2.12 ± 0.25
GPRAVLTRQPTEGRSRD [RET1] | 3.43 ± 0.091 | 3.35 ± 0.066 | 3.1 ± 0.067 | 3.34 ± 0.057
KETWLHELSSSHTSLVK [SRB8] | 1.81 ± 0.05 | 2.04 ± 0.056 | 1.87 ± 0.083 | 1.8 ± 0.055
LDKHERKWMEEKADYER [YIL149C/MLP2] | 2.8 ± 0.094 | 3.35 ± 0.15 | 2.66 ± 0.13 | 3.25 ± 0.12
YNNRSLLDFNTALKQYE [RPN6] | 3.32 ± 0.097 | 3.04 ± 0.084 | 3.15 ± 0.067 | 3.13 ± 0.099
